Read-outs that look alike come from different tables or passages of the source.
Tests used:
[1] = molecular target: T1, recombinant human TNFα (human, UniProt P01375 77-233); assay: inhibition ELISA: biotinylated human TNFα pre-incubated with serially diluted scFv, binding of unblocked TNFα to coated TNFRII-Fc detected
T1 construct: also called biotinylated TNFα; TNFαtrimer

[2] = molecular target: T1, recombinant human TNFα; assay: inhibition ELISA, blocking of biotinylated TNFα binding to coated TNFRII-Fc; relative to infliximab
[3] = molecular target: T1, recombinant human TNFα; assay: cell-based or functional assay
[4] = molecular target: T1, recombinant human TNFα; assay: inhibition ELISA, blocking of biotinylated TNFα binding to coated TNFRII-Fc
[5] = molecular target: Rhesus monkey TNFα (Rhesus monkey (Macaca mulatta), UniProt P48094 77-233); assay: cell-based or functional assay
Sequence of Rhesus monkey TNFα (P48094 77-233 limits assumed): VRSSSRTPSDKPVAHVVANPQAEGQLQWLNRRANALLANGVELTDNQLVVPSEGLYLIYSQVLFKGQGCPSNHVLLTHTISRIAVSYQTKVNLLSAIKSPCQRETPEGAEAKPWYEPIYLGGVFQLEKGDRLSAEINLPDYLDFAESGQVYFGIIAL

[6] = molecular target: recombinant Cynomolgus monkey TNFα (Cynomolgus monkey (Macaca fascicularis), UniProt P79337 77-233); assay: cell-based or functional assay
Sequence of recombinant Cynomolgus monkey TNFα (P79337 77-233 limits assumed): as the sequence (P48094 77-233 limits assumed) above, with L37V counted along it

[7] = molecular target: T1, recombinant human TNFα; assay: cell-based or functional assay; remark: listed apart in the source
[8] = molecular target: T1, recombinant human TNFα; assay: cell-based or functional assay; remark: listed apart in the source
[9] = molecular target: T1, recombinant human TNFα; assay: inhibition ELISA, blocking of biotinylated TNFα binding to coated TNFRI-Fc; relative to infliximab

T1 sequence (P01375 77-233 limits assumed): as the sequence (P48094 77-233 limits assumed) above, with T44R, N72T, L138R counted along it

Binder | IC50 (read off the curve) [1] [ng/mL] | rel. IC50 (IC50 infliximab / IC50 scFv, ng/mL) [2] | L929 assay, rel. IC50 (IC50 infliximab / IC50 scFv, ng/mL) [3] | IC [ng] (head cut off; probably IC50 [ng/mL]) [4] | IC50 (read off the curve) (L929 assay, % growth) [5] [ng/mL] | IC50 (read off the curve) (L929 assay, % growth) [6] [ng/mL] | IC50 (read off the curve) (L929 assay, % growth) [7] [ng/mL] | IC50 (read off the curve) (L929 assay, % growth) [8] [ng/mL] | rel. IC50 (IC50 infliximab / IC50 scFv, ng/mL) [9]
humanized scFv 16-22-H05-sc02 (scFv, also called 16-22-H05-sc02 (STR); structural graft) scFv: MDIQMTQSPSSLSASVGDRVTIKCQASQSIFSGLAWYQQKPGKAPKLLIYGASKLASGVPSRFSGSGSGTEFTLTISGLQPADFATYYCQSYYYSSSSSDGSYAFGGGTKLTVLGGGGGSGGGGSGGGGSGGGGSEVQLVESGGGLVQPGGSLRLSCKASGIDFNNYGIGWVRQAPGKGLEWITYIYPGFAITNFANSVKGRFTISSDNSKNTVYLQMNSLRAEDTAVYYCARDPVYATSSGYFDLWGQGTLVTVSS | ~20 | 5.7 | 13.1 | 20 ng (head cut off) | ~3 | ~3 | ~0.6 | ~0.5 | 3.5
humanized scFv 16-22-H05-sc04 (scFv, also called 16-22-H05-sc04 (CDR/STR); domain shuffled variant) scFv: MDIQMTQSPSSLSASVGDRVTITCQASQSIFSGLAWYQQKPGKAPKLLIYGASKLASGVPSRFSGSGSGTEFTLTISGLQPADFATYYCQSYYYSSSSSDGSYAFGGGTKLTVLGGGGGSGGGGSGGGGSGGGGSEVQLVESGGGLVQPGGSLRLSCKASGIDFNNYGIGWVRQAPGKGLEWITYIYPGFAITNFANSVKGRFTISSDNSKNTVYLQMNSLRAEDTAVYYCARDPVYATSSGYFDLWGQGTLVTVSS | ~30 | 3.5 | 14.6 | 32 ng (head cut off) | ~3 | ~3 | ~0.6 | ~0.5 | 2.8
